Legend:
[1] = target: T1, human PSMA (human, UniProt Q04609 44-750); assay: FACS on hPSMA (FIG. 2)
T1 construct: also called hPSMA; Human PSMA dimer (DT1596)

[2] = target: mouse PSMA (mouse, UniProt O35409 45-752, limits assumed); assay: ELISA, Biacore and/or FACS (not said which for mouse)
Chain of mouse PSMA (O35409 45-752 limits assumed): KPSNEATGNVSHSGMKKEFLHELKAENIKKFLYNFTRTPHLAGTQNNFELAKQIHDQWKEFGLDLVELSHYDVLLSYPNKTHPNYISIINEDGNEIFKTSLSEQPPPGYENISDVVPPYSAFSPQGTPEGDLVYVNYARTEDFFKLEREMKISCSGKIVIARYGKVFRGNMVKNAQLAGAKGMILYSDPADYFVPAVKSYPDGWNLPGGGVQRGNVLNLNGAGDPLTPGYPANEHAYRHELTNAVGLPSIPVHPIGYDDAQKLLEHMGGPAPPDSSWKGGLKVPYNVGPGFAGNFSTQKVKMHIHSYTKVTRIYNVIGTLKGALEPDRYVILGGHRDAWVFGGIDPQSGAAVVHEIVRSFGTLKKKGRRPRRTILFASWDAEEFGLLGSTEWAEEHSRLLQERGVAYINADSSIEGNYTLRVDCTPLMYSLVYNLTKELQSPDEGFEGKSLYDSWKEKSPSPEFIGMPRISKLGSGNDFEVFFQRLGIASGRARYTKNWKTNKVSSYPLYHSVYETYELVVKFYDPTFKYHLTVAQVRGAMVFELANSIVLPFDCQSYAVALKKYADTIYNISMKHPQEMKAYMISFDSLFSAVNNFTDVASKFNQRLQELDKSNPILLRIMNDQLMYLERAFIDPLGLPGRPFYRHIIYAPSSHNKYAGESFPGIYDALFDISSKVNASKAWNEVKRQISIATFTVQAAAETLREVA

T1 sequence (Q04609 44-750 limits assumed): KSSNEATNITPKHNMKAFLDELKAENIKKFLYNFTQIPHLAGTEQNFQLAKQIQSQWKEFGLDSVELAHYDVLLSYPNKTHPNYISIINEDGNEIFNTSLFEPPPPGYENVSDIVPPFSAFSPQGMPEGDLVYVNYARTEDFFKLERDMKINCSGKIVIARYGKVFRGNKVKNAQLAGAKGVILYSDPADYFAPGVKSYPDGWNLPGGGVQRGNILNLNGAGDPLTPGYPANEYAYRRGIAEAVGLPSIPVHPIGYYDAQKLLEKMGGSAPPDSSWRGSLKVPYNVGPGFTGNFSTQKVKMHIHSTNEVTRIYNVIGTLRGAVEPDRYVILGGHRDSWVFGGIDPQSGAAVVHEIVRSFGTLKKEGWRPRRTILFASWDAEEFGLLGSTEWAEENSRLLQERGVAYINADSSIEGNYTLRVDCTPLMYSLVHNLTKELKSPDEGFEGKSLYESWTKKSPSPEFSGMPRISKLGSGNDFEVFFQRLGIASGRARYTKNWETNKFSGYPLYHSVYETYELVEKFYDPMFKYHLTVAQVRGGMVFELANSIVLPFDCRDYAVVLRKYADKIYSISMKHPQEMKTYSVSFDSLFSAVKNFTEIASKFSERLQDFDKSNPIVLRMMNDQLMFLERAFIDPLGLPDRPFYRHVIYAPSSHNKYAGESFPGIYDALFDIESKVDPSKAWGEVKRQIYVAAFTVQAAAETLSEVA

Binder | binding result [1] | binding result [2]
cHv75-2a7.G1(C99Y;L328C)k (antibody, V domains shown, also called [Ag]AB-5) VH: EVQLVESGGGLVQPGGSLRLSCAASGITFSNYWMSWVRQAPGKGLEWVANIKKDGSEKFYVDSVKGRFTISRDNAKNSLYLQINSLRAEDTAMYYCAREIQLYLQHWGQGTLVTVSS VL: DIQMTQSPSSVSASVGGRVTITCRASQGISNWLAWYQQKPGKAPKLLIYAASSLQSGVPSRFSGSGSGTDFTLTISNLQPEDFASYYCQQANSFPLTFGGGTKVEIKR | binds | no binding
cHv75-2a11.G1(L328C)k (antibody, human IgG1, kappa, V domains shown, also called [Ag]AB-4; cHv75-2a11.G1(1,328C)k) VH: QVQLVESGGGVVQPGRSLRLSCAASGFTFSSYDMHWVRQAPGKGLEWVAVIWYDGSNKYYADSLKGRFTISRDNSKNTLYLQMNSLRAEDTAVYYCARVIAARTFYYYGMDVWGQGTTVTVSS VL: not shown | binds | no binding
